Among the data in PMC4933246 are fold increase in luciferase activity and luciferase activity of the DBH promoter reporter in HeLa cells co-transfected with PHOX2A and the PHOX2B +7 alanine mutant (fold over the empty vector) values, retold here.

The target of experiment [1] is PHOX2B +13Ala fused to GAL4 BD or VP16 AD (human) (UniProt Q99453). Kind of experiment: two-hybrid; mammalian two-hybrid (CheckMate, Promega) in neuroblastoma SK-N-BE(2)C cells; GAL4 BD fusion (pBIND) and VP16 AD fusion (pACT), 80 fmol each, with 160 fmol pG5LUC; Dual-Luciferase assay.
Experiment [2] addresses PHOX2A, MYC- or HA-tagged (human) (UniProt O14813).
Experiment [3] has as its target PHOX2B +7Ala fused to GAL4 BD or VP16 AD (human) (UniProt Q99453). Kind of experiment: two-hybrid; mammalian two-hybrid (CheckMate, Promega) in neuroblastoma SK-N-BE(2)C cells; GAL4 BD fusion (pBIND) and VP16 AD fusion (pACT), 80 fmol each, with 160 fmol pG5LUC; Dual-Luciferase assay.

For the substance “PHOX2B +13Ala fused to GAL4 BD or VP16 AD (from UniProt Q99453 1-314) (natural protein)”, the fold increase in luciferase activity in experiment [1] stood at 2 fold. “PHOX2B +7 alanine mutant, MYC- or HA-tagged (from UniProt Q99453 1-314) (natural protein)” showed a luciferase activity of the DBH promoter reporter in HeLa cells co-transfected with PHOX2A and the PHOX2B +7 alanine mutant (fold over the empty vector) in experiment [2] of 23. In experiment [3], “PHOX2B +7Ala fused to GAL4 BD or VP16 AD (from UniProt Q99453 1-314) (natural protein)” came in with a fold increase in luciferase activity of 1.7 fold.
